Laboratory results: publication PMC3928614

How the values were obtained:
[1] = biological target: GST-G547 IRE1α (His-GST-tagged IRE1α residues G547-L977) (UniProt O75460); assay: native gel or EMSA; native polyacrylamide gel of purified GST-G547 IRE1α and G547 IRE1α; conditions not given
[2] = biological target: GST-G547 IRE1α (His-GST-tagged IRE1α residues G547-L977) (UniProt O75460)
[3] = biological target: autophosphorylated G547 IRE1α (residues G547-L977, incubated with Mg/ATP) (human) (UniProt O75460)

Substance | stoichiometry N [1] | RNase activity (FRET derepression assay) of fully dephosphorylated GST-G547 IRE1α at 25 nM, the lowest concentration tested (% of full activity) [2] | RNase activity (FRET-derepression assay) against concentration of autophosphorylated G547 IRE1α; activity from 50 nM, maximal at 350 nM [3] [nM]
GST-G547 IRE1α (His-GST-tagged IRE1α residues G547-L977) (from UniProt O75460 547-977) | 2 | 70 | 
autophosphorylated G547 IRE1α (residues G547-L977, incubated with Mg/ATP) (from UniProt O75460 547-977) (domain or fragment) |  |  | 114
